Measurements published in US11325966.
Like-named read-outs stand apart in the source and are kept apart here.

Legend:
Assay in all cases: cell-based or functional assay
[1] = target: HIV-1 Env of pseudovirus 1394C9G1(Rev-) (HIV-1)
[2] = target: 92BR020 N136A + N156A + N301A (HIV-1)
JR-CSF N332A (HIV-1) = JR-CSF N332A (HIV-1) (UniProt P20871)
92BR020 N332A (HIV-1) = target: 92BR020 N332A (HIV-1)
[3] = target: BG505 (T332N) N156A (HIV-1)
JR-CSF G324A (HIV-1) = JR-CSF G324A (HIV-1) (UniProt P20871)
[4] = target: BG505 (T332N) N392A (HIV-1)
92BR020 N301A (HIV-1) = target: 92BR020 N301A (HIV-1)
JR-CSF N339A (HIV-1) = JR-CSF N339A (HIV-1) (UniProt P20871)
[5] = target: BG505 (T332N) N137A (HIV-1)
[6] = target: 92BR020 N136A + N332A (HIV-1)
92BR020 N156A (HIV-1) = target: 92BR020 N156A (HIV-1)
92BR020 I326A (HIV-1) = target: 92BR020 I326A (HIV-1)
JR-CSF N392A (HIV-1) = JR-CSF N392A (HIV-1) (UniProt P20871)
92BR020 H33OA (HIV-1) = target: 92BR020 H33OA (HIV-1)
JR-CSF H33OA (HIV-1) = JR-CSF H33OA (HIV-1) (UniProt P20871)
[7] = target: HIV-1 Env of pseudovirus 7030102001E5(Rev-) (HIV-1)
92BR020 N392A (HIV-1) = target: 92BR020 N392A (HIV-1)
92BR020 R327A (HIV-1) = target: 92BR020 R327A (HIV-1)
92BR020 (HIV-1) = target: 92BR020 (HIV-1)
JR-CSF Q328A (HIV-1) = JR-CSF Q328A (HIV-1) (UniProt P20871)
[8] = target: BG505 (T332N) N295A (HIV-1)
92BR020 N386A (HIV-1) = target: 92BR020 N386A (HIV-1)
[9] = target: 92BR020 N301A + N332A (HIV-1)
[10] = target: HIV-1 Env of pseudovirus 235-47 (HIV-1)
[11] = target: HIV-1 Env of pseudovirus 1394C9G1(Rev-) (HIV-1); remark: listed apart in the source
[12] = target: HIV-1 Env of pseudovirus 231966.c02 (HIV-1)
[13] = target: HIV-1 Env of pseudovirus ZM53M.PB12 (HIV-1)
[14] = target: HIV-1 Env of pseudovirus Du172.17 (HIV-1)
[15] = target: HIV-1 Env of pseudovirus WEAU_d15_410_787 (HIV-1)
[16] = target: HIV-1 Env of pseudovirus 1006_11_C3_1601 (HIV-1)
[17] = target: HIV-1 Env of pseudovirus CAP45.2.00.G3 (HIV-1)
[18] = target: HIV-1 Env of pseudovirus R1166.c01 (HIV-1)
[19] = target: HIV-1 Env of pseudovirus 3301.v1.c24 (HIV-1)
[20] = target: HIV-1 Env of pseudovirus 249M B10 (HIV-1)
[21] = target: HIV-1 Env of pseudovirus T278-50 (HIV-1)
[22] = target: HIV-1 Env of pseudovirus C2101.c01 (HIV-1)
[23] = target: HIV-1 Env of pseudovirus CNE17 (HIV-1)
[24] = target: HIV-1 Env of pseudovirus CNE58 (HIV-1)
[25] = target: HIV-1 Env of pseudovirus WITO4160.33 (HIV-1)
[26] = target: HIV-1 Env of pseudovirus 6480.v4.c25 (HIV-1)
[27] = target: HIV-1 Env of pseudovirus CNE19 (HIV-1)
[28] = target: HIV-1 Env of pseudovirus CNE20 (HIV-1)
[29] = target: HIV-1 Env of pseudovirus Q23.17 (HIV-1)
[30] = target: HIV-1 Env of pseudovirus TRJO4551.58 (HIV-1)
[31] = target: HIV-1 Env of pseudovirus 6540.v4.c1 (HIV-1)

354BG8 (antibody)
IC50 in TZM-bl assay [1]: 0.031 mg/L
IC80 in TZM-bl assay [1]: 0.093 mg/L
IC50 in TZM-bl assay [2]: 0.001 mg/L
IC50 in TZM-bl assay (JR-CSF N332A (HIV-1)): > 50 mg/L
IC50 in TZM-bl assay (92BR020 N332A (HIV-1)): > 50 mg/L
IC50 in TZM-bl assay [3]: 0.008 mg/L
IC50 in TZM-bl assay (JR-CSF G324A (HIV-1)): 0.005 mg/L
IC50 in TZM-bl assay [4]: 0.005 mg/L
IC50 in TZM-bl assay (92BR020 N301A (HIV-1)): 0.009 mg/L
IC50 in TZM-bl assay (JR-CSF N339A (HIV-1)): 0.01 mg/L
IC50 in TZM-bl assay [5]: 0.003 mg/L
IC50 in TZM-bl assay [6]: > 50 mg/L
IC50 in TZM-bl assay (92BR020 N156A (HIV-1)): 0.011 mg/L
IC50 in TZM-bl assay (92BR020 I326A (HIV-1)): 0.006 mg/L
IC50 in TZM-bl assay (JR-CSF N392A (HIV-1)): 0.014 mg/L
IC50 in TZM-bl assay (92BR020 H33OA (HIV-1)): 0.018 mg/L
IC50 in TZM-bl assay (JR-CSF H33OA (HIV-1)): 0.05 mg/L
IC50 in TZM-bl assay [7]: 0.009 mg/L
IC80 in TZM-bl assay [7]: 0.019 mg/L
IC50 in TZM-bl assay (92BR020 N392A (HIV-1)): 0.023 mg/L
IC50 in TZM-bl assay (92BR020 R327A (HIV-1)): 0.011 mg/L
IC50 in TZM-bl assay (92BR020 (HIV-1)): 0.015 mg/L
IC50 in TZM-bl assay (JR-CSF Q328A (HIV-1)): 0.023 mg/L
IC50 in TZM-bl assay [8]: 0.009 mg/L
IC50 in TZM-bl assay (92BR020 N386A (HIV-1)): 0.012 mg/L
IC50 in TZM-bl assay [9]: > 50 mg/L

PGT121 (antibody)
IC50 in TZM-bl assay [1]: 0.823 mg/L
IC80 in TZM-bl assay [1]: 6.23 mg/L
IC50 in TZM-bl assay [2]: 0.001 mg/L
IC50 in TZM-bl assay (JR-CSF N332A (HIV-1)): > 50 mg/L
IC50 in TZM-bl assay (92BR020 N332A (HIV-1)): 0.08 mg/L
IC50 in TZM-bl assay [3]: 0.007 mg/L
IC50 in TZM-bl assay (JR-CSF G324A (HIV-1)): 0.044 mg/L
IC50 in TZM-bl assay [4]: 0.006 mg/L
IC50 in TZM-bl assay (92BR020 N301A (HIV-1)): 0.003 mg/L
IC50 in TZM-bl assay (JR-CSF N339A (HIV-1)): 0.007 mg/L
IC50 in TZM-bl assay [5]: 0.002 mg/L
IC50 in TZM-bl assay [6]: > 1 mg/L
IC50 in TZM-bl assay (92BR020 N156A (HIV-1)): 0.003 mg/L
IC50 in TZM-bl assay (92BR020 I326A (HIV-1)): 0.002 mg/L
IC50 in TZM-bl assay (JR-CSF N392A (HIV-1)): 0.017 mg/L
IC50 in TZM-bl assay (92BR020 H33OA (HIV-1)): 0.003 mg/L
IC50 in TZM-bl assay (JR-CSF H33OA (HIV-1)): 0.017 mg/L
IC80 in TZM-bl assay [7]: 0.042 mg/L
IC50 in TZM-bl assay (92BR020 N392A (HIV-1)): 0.007 mg/L
IC50 in TZM-bl assay (92BR020 R327A (HIV-1)): 0.001 mg/L
IC50 in TZM-bl assay (92BR020 (HIV-1)): 0.004 mg/L
IC50 in TZM-bl assay (JR-CSF Q328A (HIV-1)): 0.057 mg/L
IC50 in TZM-bl assay [8]: 0.014 mg/L
IC50 in TZM-bl assay (92BR020 N386A (HIV-1)): 0.006 mg/L
IC50 in TZM-bl assay [9]: > 1 mg/L

B1: 10-1074 (antibody, V domains shown)
VH: QVQLQESGPGLVKPSETLSVTCSVSGDSMNNYYWTWIRQSPGKGLEWIGYISDRESATYNPSLNSRVVISRDTSKNQLSLKLNSVTPADTAVYYCATARRGQRIYGVVSFGEFFYYYSMDVWGKGTTVTVSS
VL: SYVRPLSVALGETARISCGRQALGSRAVQWYQHRPGQAPILLIYNNQDRPSGIPERFSGTPDINFGTRATLTISGVEAGDEADYYCHMWDSRSGFSWSFGGATRLTVL
IC50 in TZM-bl assay [10]: 0.058 mg/L
IC80 in TZM-bl assay [10]: 0.224 mg/L
IC50 in TZM-bl assay [11]: 0.031 mg/L
IC80 in TZM-bl assay [11]: 0.093 mg/L
IC50 in TZM-bl assay [12]: > 10 mg/L
IC80 in TZM-bl assay [12]: > 10 mg/L
IC50 in TZM-bl assay [13]: > 10 mg/L
IC80 in TZM-bl assay [13]: > 10 mg/L
IC50 in TZM-bl assay [14]: 0.049 mg/L
IC80 in TZM-bl assay [14]: 0.194 mg/L
IC50 in TZM-bl assay [15]: 0.031 mg/L
IC80 in TZM-bl assay [15]: 0.112 mg/L
IC50 in TZM-bl assay [16]: 0.002 mg/L
IC80 in TZM-bl assay [16]: 0.006 mg/L
IC50 in TZM-bl assay [17]: > 10 mg/L
IC80 in TZM-bl assay [17]: > 10 mg/L
IC50 in TZM-bl assay [18]: > 10 mg/L
IC80 in TZM-bl assay [18]: > 10 mg/L
IC50 in TZM-bl assay [19]: 0.018 mg/L
IC80 in TZM-bl assay [19]: 0.049 mg/L
IC50 in TZM-bl assay [20]: > 10 mg/L
IC80 in TZM-bl assay [20]: > 10 mg/L
IC50 in TZM-bl assay [21]: 1.71 mg/L
IC80 in TZM-bl assay [21]: > 10 mg/L
IC50 in TZM-bl assay [22]: > 10 mg/L
IC80 in TZM-bl assay [22]: > 10 mg/L
IC50 in TZM-bl assay [23]: 1.18 mg/L
IC80 in TZM-bl assay [23]: 4.85 mg/L
IC50 in TZM-bl assay [24]: 0.165 mg/L
IC80 in TZM-bl assay [24]: 0.476 mg/L
IC50 in TZM-bl assay [25]: 0.111 mg/L
IC80 in TZM-bl assay [25]: 0.828 mg/L
IC50 in TZM-bl assay [26]: 0.006 mg/L
IC80 in TZM-bl assay [26]: 0.023 mg/L
IC50 in TZM-bl assay [27]: 0.075 mg/L
IC80 in TZM-bl assay [27]: > 10 mg/L
IC50 in TZM-bl assay [28]: 0.002 mg/L
IC80 in TZM-bl assay [28]: 0.005 mg/L
IC50 in TZM-bl assay [29]: 0.005 mg/L
IC80 in TZM-bl assay [29]: 0.015 mg/L
IC50 in TZM-bl assay [30]: 0.057 mg/L
IC80 in TZM-bl assay [30]: 0.218 mg/L
IC50 in TZM-bl assay [31]: > 10 mg/L
IC80 in TZM-bl assay [31]: > 10 mg/L
